Measurements as given in the supplement of paper PMC10567573.

B1: AUP1 (parent)
chain: EGLLRFSSWPFSIQDVVQPLTLQV
B2: LOXL2 (parent)
chain: RLLRFSSQIHNNGQSDFRPKNGRH

Variants of: B1
Assay: protein stability index of a GFP-peptide fusion (GPS, HEK-293T) (PSI 1-6); higher = more stable
Conditions: c terminus: a fixed tail appended
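Further: lentivirally expressed fusions sorted by FACS into six bins by GFP to DsRed ratio, PSI derived from sequencing read proportions per bin multiplied by bin number.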

Protein stability index: each site, then its substitutions
S8: A 2.17, F 3.08, T 2.62, C 2.25, G 2.57, E 2.23
D15: L 2.63, Y 2.41, N 2.13, Q 3.59, M 2.12, K 1.48, E 3.9, I 1.3
P10: G 1.88, Y 3.85, N 2.05, A 3.01, V 3.54, M 2.26, T 2.79, I 1.55, D 2.04, H 4
W9: P 1.28, T 1.86, Q 2, E 1.66, R 1.48, N 1.42, I 2.27, A 3.6, L 2.97, S 1.73, C 3.91, D 1.58, K 2.62, M 2.45, Y 3.88
P19: L 4.13, S 4.01, I 2.96, W 1.56
Q18: A 2.25, E 2.6, Y 4.33, H 2.53
I13: F 3.26, D 1.86, E 1.22, K 2.53, C 1.56, R 2.4, H 1.94, T 2.84, W 1.29
V17: F 2.53, D 1.37, C 3.22, E 1.38, N 2.03, K 2.35, H 3.15
F6: W 2.94, Y 1.33, V 1.73, T 1.06, S 1.24
V24: W 2.53, F 3.48, N 1.59, R 2.75, G 2.14, D 1.97, L 2.77, E 2.06, A 2.15, T 1.45, Y 3.1, P 1.57, C 2.23, M 5.7, I 2.38, Q 1.53, K 2.17, S 1.79
Q14: Y 3.36, R 2.64, T 1.79
V16: P 3.33, K 2.57, I 2.78, T 3.01, S 4.02, H 3.18, C 3.11, D 1.08, L 1.28, E 1.09
L22: G 1.6, Q 2.11, D 2.61, P 1.52, V 2.62, K 1.76, C 1.85, Y 2.16, I 2.13, S 1.85, N 1.27, F 3.96, T 2.47, A 1.68, E 2.15, H 1.75
L20: H 1.22, E 1.89, N 1.54, D 1.98, T 1.73, S 2.4, R 1.24, P 1.63, A 1.65, I 5.25, K 1.19, Q 2.28
F11: K 1.78, P 2.46, G 1.05, S 3.39, T 2.46, Q 1.73, R 1.7, M 2.22, D 1.04, N 1.85
T21: N 1.74, P 1.8, L 4.97, Q 2.63, C 1.52, D 1.58, S 3.58, G 5.2, E 2.9, V 2.81
Q23: R 2.91, A 3.02, D 1.81, C 1.61, S 1.4, Y 2.82, H 1.98, K 1.59, G 1.4, E 2.65, P 1.45, M 3.98, L 3.58
S7: M 2.94, I 3.04, Y 3.72, N 2.32, R 1.33, H 2.13, P 2.2, D 2.32, W 1.83
S12: P 2.66, M 3.22, H 2.25, G 2.04, D 1.95

Variants of: B2
Assay: as above
Conditions: c terminus: a fixed tail appended

Protein stability index, by site and new letter:
F5: G 4.21, D 3.84, V 3.74, L 2.54, K 3.29, M 2.77, H 3.95, P 3.71, T 3.99, I 2.72, C 3.06, W 2.15, R 3.69, A 3.46, S 3.81, E 3.94, Q 3.6, Y 2.96, N 3.92
Q8: K 2.14, H 2.5, F 2.07, I 2.23, D 3.81, T 2.67, L 2.29, V 2.95, C 2.21, S 2.73, M 1.95, E 3.17, R 2.91, W 1.77, P 3.54, N 2.95, G 2.87, A 2.94, Y 2.05
S6: Y 2.89, I 3.34, K 3.05, D 3.81, G 2.64, R 2.99, C 3.08, P 3.41, H 2.37, Q 2.71, A 2.65, V 3.85, E 3.62, F 2.09, L 2.45, T 2.46, W 2.56, N 3.03, M 2.51
R4: W 2.15, F 2.32, T 3.09, L 2.36, M 2.81, P 3.86, V 2.62, E 2.87, Q 2.57, H 2.74, A 2.87, D 3.16, Y 2.66, K 2.27, S 2.79, G 3.51, I 2.48, C 2.87, N 3.35
L2: F 2.82, R 4.07, I 3.28, Y 3.35, M 3.27, Q 4.12, K 3.91, H 4.21, E 3.98, W 2.71, T 4.69, A 3.68, G 4.6, V 3.52, C 3.82, P 4.63, S 4.59, N 4.58, D 4.51
S7: A 2.5, D 3.57, V 2.04, Y 2.25, W 2.06, G 2.46, H 2.44, E 2.79, P 4.2, T 2.21, L 1.78, M 1.79, C 2.41, R 2.25, N 2.79, Q 2.18, I 1.89, K 2.21, F 1.79
R1: M 2.66, V 1.89, Y 1.71, E 2.41, S 2.58, D 2.97, L 1.72, H 2.67, K 3.15, W 1.65, F 1.17, N 2.65, T 2.57, G 3.12, C 2.78, P 4.01, I 1.78, Q 2.48, A 2.41
L3: D 3.98, Y 3.44, V 3.44, R 3.81, W 2.64, I 3.14, Q 3.99, G 3.63, P 3.91, E 4.34, F 3.05, T 3.95, K 3.84, M 3.37, S 3.77, H 3.79, N 3.98, A 3.59, C 2.88
I9: E 3.93, C 3.11, A 2.81, F 2.32, G 3.48, K 2.31, D 3.5, H 3.26
